Measured values taken from patent publication US20160032263A1.
Several values for one entry are separate records, joined by “and”; a condition that tells them apart may be missing. Identical values can stand only once.

Molecular target: histidine-tagged HIV-1 integrase protein (IN) (HIV-1) (UniProt P04585)
Assay: cell-based or functional assay

Substance	inhibition of IN enzymatic activity
Rev 13-23 peptide (Rev-derived peptide, as used in the IN activity assay) (from UniProt P04618 13-23)	60 % inhibition and 70 % inhibition
Rev 53-67 peptide (Rev-derived peptide, as used in the IN activity assay) (from UniProt P04618 53-67)	60 % inhibition and 70 % inhibition
